In test [1] the target is T1, Human ROR1 (receptor tyrosine kinase-like orphan receptor 1) (human, UniProt Q01973 30-937).
T1 construct: also called hROR1; K562/ROR1
Put plainly: flow cytometry on ROR1-expressing K562 and CHOK1 cells (n = 1). A general note: Flow cytometry measures light scatter and fluorescence of single cells or particles in a stream.

Test [2] addresses T1, Human ROR1 (receptor tyrosine …). Put plainly: flow cytometry competition, competitor 2 nM Myc-R12 scFv on ROR1/K562 cells, mean (n = 2). As for the experimental part: (§1) Assays also were performed to assess competition of the clones with the reference antibody (R12 scFv), for binding to ROR1-expressing cells. VH clones were titrated against 2 nM Myc-R12 on ROR1/K562 cells and competition assessed with an anti-Myc-Alexa647 secondary antibody, and the half maximal inhibitory concentration (IC₅₀) determined for respective clones.

The target is the same in test [3]. The test can be described thus: flow cytometry on ROR1-expressing cells; predicted plateau relative to R12 scFv = 100%. How it is done:
(§2) Additionally, percent (%) maximum (max) binding to ROR1-expressing cells and % max competition with the reference antibody (R12 scFv) were calculated. Percent max binding and competition values were calculated based on predicted plateaus (measured by Prism® using four parameter non-linear regression), relative to values for R12 scFv binding and inhibition, respectively, assigned as 100% in each study.

Test [4] has the same target. Put plainly: competition with Myc-R12 scFv on ROR1/K562 cells; predicted plateau relative to R12 scFv = 100%. As for the experimental part: as §1, §2
Test [5] shares this target. Put plainly: flow cytometry on ROR1-expressing K562 and CHOK1 cells, mean (n = 2).
In another test the target is T2, Mouse ROR1 (mouse, UniProt Q9Z139 30-937).
T2 construct: also called mROR1; K562/mouse ROR1
T2 sequence (Q9Z139 30-937): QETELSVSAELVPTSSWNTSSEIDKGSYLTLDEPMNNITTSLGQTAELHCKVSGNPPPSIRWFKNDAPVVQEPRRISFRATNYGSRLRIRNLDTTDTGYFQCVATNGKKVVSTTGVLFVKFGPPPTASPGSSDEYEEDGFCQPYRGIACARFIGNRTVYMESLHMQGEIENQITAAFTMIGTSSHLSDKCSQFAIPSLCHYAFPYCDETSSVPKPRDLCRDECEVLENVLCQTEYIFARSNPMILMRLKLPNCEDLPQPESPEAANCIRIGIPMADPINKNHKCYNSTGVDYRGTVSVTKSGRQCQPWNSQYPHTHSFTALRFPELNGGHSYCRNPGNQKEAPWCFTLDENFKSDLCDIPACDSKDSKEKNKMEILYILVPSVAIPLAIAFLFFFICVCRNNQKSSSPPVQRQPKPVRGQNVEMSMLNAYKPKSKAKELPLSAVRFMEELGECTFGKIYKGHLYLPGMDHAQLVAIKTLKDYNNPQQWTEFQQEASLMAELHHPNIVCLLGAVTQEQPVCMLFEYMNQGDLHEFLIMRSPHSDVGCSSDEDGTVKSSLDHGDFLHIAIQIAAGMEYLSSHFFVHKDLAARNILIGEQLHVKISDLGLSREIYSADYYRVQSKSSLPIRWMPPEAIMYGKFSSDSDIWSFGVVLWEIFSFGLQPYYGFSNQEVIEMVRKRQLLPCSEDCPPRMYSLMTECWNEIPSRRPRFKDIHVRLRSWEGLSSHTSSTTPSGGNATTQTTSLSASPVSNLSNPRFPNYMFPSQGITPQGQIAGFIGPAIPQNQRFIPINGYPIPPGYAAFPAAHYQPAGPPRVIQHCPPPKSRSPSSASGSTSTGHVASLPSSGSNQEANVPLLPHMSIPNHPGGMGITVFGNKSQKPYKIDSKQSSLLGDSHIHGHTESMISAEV
The test can be described thus: inferred from IFN-gamma release of CAR T cells on K562/mouse ROR1 cells. As for the experimental part: Cytokine release was assessed following incubation of the CAR-expressing cells with either K562/human ROR1 (hROR1) or K562/mouse ROR1 (mROR1) antigen-expressing cells. Transduced CD8+ T cells were co-cultured with antigen-expressing cells at a single effector to target (E:T). The co-cultured cells were incubated for about 24 hours, and then supernatants were collected for measurement of IFN-γ using a cytokine immunoassay.

Test [6] has as its target T1, Human ROR1 (receptor tyrosine …). The test can be described thus: flow cytometry competition, competitor 2 nM Myc-R12 scFv on ROR1/K562 cells, mean (n = 3). As for the experimental part:
as §1

Test [7] shares this target. The test can be described thus: flow cytometry on ROR1-expressing K562 and CHOK1 cells, mean (n = 7).
Test [8] shares this target. The test can be described thus: flow cytometry competition, competitor 2 nM Myc-R12 scFv on ROR1/K562 cells, mean (n = 8). How it is done:
as §1

The target is the same in test [9]. The test can be described thus: flow cytometry competition, competitor 2 nM Myc-R12 scFv on ROR1/K562 cells, mean (n not given). As for the experimental part:
as §1

Test [10] shares this target. Put plainly: flow cytometry on ROR1-expressing K562 and CHOK1 cells, mean (n = 4).
Test [11] shares this target. Put plainly: competition with R12 scFv on ROR1-expressing cells; predicted plateau relative to R12 scFv = 100%. How it is done: as §2
(§3) Assays also were performed to assess competition (measured as half maximal inhibitory concentration (IC₅₀)) of the clones with the R12 scFv reference antibody for binding to ROR1-expressing cells, as described in Example 1. Percent (%) max ROR1 and % max competition, as compared to the R12 scFv reference antibody, were determined as described in Example 1.

Test [12] shares this target. The test can be described thus: flow cytometry competition, competitor R12 scFv on ROR1-expressing cells, mean (n = 4). How it is done: as §1, §3
The target is the same in test [13]. The test can be described thus: flow cytometry on ROR1-expressing cells; predicted plateau relative to R12 scFv = 100%. As for the experimental part:
as §2, §3
The source holds these as a separate data set.

Test [14] shares this target. The test can be described thus: flow cytometry competition, competitor R12 scFv on ROR1-expressing cells, mean (n = 3). How it is done:
as §1, §3

For test [15] the target is unchanged. Put plainly: flow cytometry competition, competitor R12 scFv on ROR1-expressing cells, mean (n = 5). As for the experimental part:
as §1, §3

Test [16] has the same target. Put plainly: flow cytometry on ROR1-expressing K562 and CHOK1 cells, mean (n = 9).

Read-outs that look alike come from different tables or passages of the source.

T1 sequence (Q01973 30-937): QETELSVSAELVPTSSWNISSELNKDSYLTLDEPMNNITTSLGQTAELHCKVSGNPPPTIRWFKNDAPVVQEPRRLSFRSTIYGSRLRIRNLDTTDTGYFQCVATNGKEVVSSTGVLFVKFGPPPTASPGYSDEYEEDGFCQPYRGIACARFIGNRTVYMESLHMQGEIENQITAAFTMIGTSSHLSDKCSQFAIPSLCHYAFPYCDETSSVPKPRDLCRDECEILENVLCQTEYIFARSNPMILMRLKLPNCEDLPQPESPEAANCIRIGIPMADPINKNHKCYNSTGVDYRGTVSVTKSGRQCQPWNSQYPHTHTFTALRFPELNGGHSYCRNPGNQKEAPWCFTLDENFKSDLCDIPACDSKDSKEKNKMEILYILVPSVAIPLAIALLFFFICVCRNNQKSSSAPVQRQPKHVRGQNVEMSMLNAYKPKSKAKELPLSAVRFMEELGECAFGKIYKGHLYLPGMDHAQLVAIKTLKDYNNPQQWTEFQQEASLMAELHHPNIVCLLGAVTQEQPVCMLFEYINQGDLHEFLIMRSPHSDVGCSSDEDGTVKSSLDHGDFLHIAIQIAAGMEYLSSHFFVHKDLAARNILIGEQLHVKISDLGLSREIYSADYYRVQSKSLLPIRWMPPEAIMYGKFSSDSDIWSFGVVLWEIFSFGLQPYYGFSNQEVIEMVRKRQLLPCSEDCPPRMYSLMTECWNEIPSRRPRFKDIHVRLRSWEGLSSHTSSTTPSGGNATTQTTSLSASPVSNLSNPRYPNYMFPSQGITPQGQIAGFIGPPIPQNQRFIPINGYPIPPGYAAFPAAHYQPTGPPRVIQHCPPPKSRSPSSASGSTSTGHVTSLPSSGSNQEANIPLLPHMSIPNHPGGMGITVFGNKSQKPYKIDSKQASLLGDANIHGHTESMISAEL

B1: Clone V316 (VHH)
VHH: EVQLVESGGGLVRPGGSLRLSCAASGLTFSRTWMSWVRQAPGKGLEWVASINDDGSEKYYVDSVKGRFTISRDNARNSLYLQMNRLRAEDTAVYYCARVDSERFLEWYYFDYWGQGTLVTVSS
notes: human VH-only single-domain antibody, no VL
Take B1: the concentration for a half-maximal effect (EC50) – broadly, the midpoint of the concentration-response curve – in test [1] amounted to 28.7 nM. Besides, in test [2], the IC50 (commonly the concentration that gives 50% inhibition) was found to be 28.8 nM. Also, in test [3], the “% Max Binding” value was 78%. In addition, the “% Max Competition” value in test [4] was 37%.

B2: Clone V95 (VHH)
VHH: QVQLVESGGGLVKPGGSLRLSCAASGFTFSNAWMSWVRQAPGKGLEWVGRIKSKTDGGTTDYAAPVKGRFTISRDDSKKTLYLQMNSLKTEDTAVYYCARGSGELRFLESYYFDYWGQGTLVTVSS
notes: as for B1
In test [2], B2 displayed an IC50 of 19 nM. In [5], this molecule returned a concentration giving a half-maximal response (EC50) of 35.5 nM. Further, the “% Max Binding” value in test [3] is 61%. Besides, the “% Max Competition” value in [4] is 36%.

B3: CAR containing Clone V353 VH-only antigen-binding domain (other)
chain: QVTLKESGGGLVKPGGSLRLSCAASGFTFSNAWMSWVRQAPGKGLEWVGRIKSKTDGGTTDYAAPVKGRFTISRDDSKNTLYLQMNSLKTEDTAVYYCARDFGRWGYYFDYWSQGTLVTVSS
notes: Chimeric antigen receptor expressed on primary human CD8+ T cells; tEGFR marker is split off by T2A; also called V353 CAR; not shown: Ig-derived hinge only spacer, human CD28-derived transmembrane domain, human 4-1BB-derived intracellular signaling domai
For B3, the binding result with Mouse ROR1 is given as “binds”.

B4: Clone V353 (VHH)
VHH: QVTLKESGGGLVKPGGSLRLSCAASGFTFSNAWMSWVRQAPGKGLEWVGRIKSKTDGGTTDYAAPVKGRFTISRDDSKNTLYLQMNSLKTEDTAVYYCARDFGRWGYYFDYWSQGTLVTVSS
notes: as for B1
As to B4, the half-inhibitory concentration (IC50) in test [2] was 0.4 nM. For the same molecule, in test [5], a half-maximal response (EC50) required 0.7 nM. Besides, in test [3], the “% Max Binding” value was 35%. Besides, the “% Max Competition” value in [4] is 62%.

B5: Clone V18 (VHH)
VHH: QVQLVESGGGLVKPGGSLRLSCAASGFTFSNAWMSWVRQAPGKGLEWVGRIKSKTDGGTTDYAAPVKGRFTISRDDSKNSLYLQMNSLKTEDTAVYYCARDFGRWSYYFDYWGQGTLVTVSS
In [6], B5 showed an IC50 of 3.4 nM. In [5], this molecule yielded an EC50 of 0.2 nM. The “% Max Binding” value in [3] was 37%. Also, the “% Max Competition” value in test [4] was 54%.

B6: Clone V86 (VHH)
VHH: QVQLLESGGGLVQPGGSLRLSCAASGFTFSSYAMSWVRQAPGKGLEWVSAISGSGGSTYYADSVKGRFTISRDNSKNTLYLQMNSLRAEDTAVYYCARVIFGVVNIPDYWGQGTLVTVSS
notes: as for B1
In turn, B6 showed an EC50 in test [5] of 97.7 nM. In other words, the double-digit nanomolar range.

B7: CAR containing Clone V70 VH-only antigen-binding domain (other)
chain: QVQLLESGGGLVQPGRSLRLSCTASGFTFGDYAMSWVRQAPGKGLEWVSSISGSGRSTDHADYVKGRFTISRDNSKNTVYLQMNRLRAEDTAVYYCAKVSNYEYYFDYWAQGTLVTVSS
notes: Chimeric antigen receptor expressed on primary human CD8+ T cells; tEGFR marker is split off by T2A; also called V70 CAR; not shown: Ig-derived hinge only spacer, human CD28-derived transmembrane domain, human 4-1BB-derived intracellular signaling domai
For the molecule B7, the binding result with Mouse ROR1 is “binds”.

B8: Clone V70 (VHH)
VHH: QVQLLESGGGLVQPGRSLRLSCTASGFTFGDYAMSWVRQAPGKGLEWVSSISGSGRSTDHADYVKGRFTISRDNSKNTVYLQMNRLRAEDTAVYYCAKVSNYEYYFDYWAQGTLVTVSS
notes: as for B1
With B8, the EC50 in test [7] was determined as 3.1 nM. The “% Max Binding” value in [3] is 92%. For the same molecule, the “% Max Competition” value in test [4] is 92%. The molecule further had an IC50 in test [8] of 38.2 nM.

B9: Clone V224 (VHH)
VHH: QVQLVESGGGLVKPGGSLRLSCAASGFTFINAWMSWVRQAPGKGLEWVGRIKSKTDGGTTDYAAPVKGRFTISRDDSKNTLYLQMNSLKTEDTAVYYCARTYSSSWYESLLFDYWGQGTLVTVSS
notes: as for B1
For B9, the concentration for a half-maximal effect (EC50) in test [1] is 46.2 nM. In addition, the half-inhibitory concentration (IC50) in test [9] turned out to be 94.6 nM. The “% Max Binding” value in [3] was 74%. Moreover, the “% Max Competition” value in [4] is 32%.

B10: Clone 40 scFv (scFv)
scFv: QVTLKESGGGLVKPGGSLRLSCAASGFTFSNAWMSWVRQAPGKGLEWVGRIKSKTDGGTTDYAAPVKGRFTISRDDSKNTLYLQMNSLRTEDTAVYYCARDFGRWSYYFDYWSQGTLVTVSSQPVLTQPHSVSESPGKTVTISCTRSSGNIASNFVQWYQRRPDGATTNVIYEDTQRPSGVSGRFSGSIDRSSNSASLTISGLRAEDEADYYCQSYDGRNLMFGGGTKVTVL
notes: the two differ at the VH N-terminus; Printed without a linker
On to B10, for which, in test [10], the EC50 amounted to 3.2 nM. Moreover, the “% Max Competition” value in test [11] is 70%. In test [12], this molecule showed an IC50 of 22.8 nM. The “% Max Binding” value in test [13] was 81%.

B11: Clone 48 scFv (scFv)
scFv: QVTLKESGGGLVKPGGSLRLSCAASGFTFSNAWMSWVRQAPGKGLEWVGRIKSKTDGGTTDYAAPVKGRFTISRDDSKNTLYLQMNSLKTEDTAVYYCARDFGRWSYYFDYWSQGTLVTVSSGGGGSGGGGSGGGGSQSVLTQPSSVSGTPGQRVTISCSGSSSNIGSNYVYWYQQLPGTAPKLLIYRNNQRPSGVPDRFSGSKSGTSASLAISGLRSEDEADYYCAAWDDSLSGVVFGGGTKLTVL
As to B11, in [10], the EC50 is 9.2 nM. Further, in test [11], the “% Max Competition” value is 55%. This molecule yielded an IC50 in test [14] of 53.7 nM. Besides, in test [13], the “% Max Binding” value is 69%.

B12: CAR containing Clone 48 scFv (VH-VL) (other)
chain: QVTLKESGGGLVKPGGSLRLSCAASGFTFSNAWMSWVRQAPGKGLEWVGRIKSKTDGGTTDYAAPVKGRFTISRDDSKNTLYLQMNSLKTEDTAVYYCARDFGRWSYYFDYWSQGTLVTVSSGGGGSGGGGSGGGGSQSVLTQPSSVSGTPGQRVTISCSGSSSNIGSNYVYWYQQLPGTAPKLLIYRNNQRPSGVPDRFSGSKSGTSASLAISGLRSEDEADYYCAAWDDSLSGVVFGGGTKLTVL
notes: Chimeric antigen receptor expressed on primary human CD8+ T cells; tEGFR marker is split off by T2A; also called 48 CAR; not shown: Ig-derived hinge only spacer, human CD28-derived transmembrane domain, human 4-1BB-derived intracellular signaling domai
As for B12, the binding result in the test with Mouse ROR1 is on record as “binds”.

B13: Clone 20 scFv (scFv)
scFv: QVTLKESGGGLVKPGGSLRLSCAASGFTFSNAWMSWVRQAPGKGLEWVGRIKSKTDGGTTDYAAPVKGRFTISRDDSKNTLYLQMNSLKTEDTAVYYCARDFGRWSYYFDYWSQGTLVTVSSNIQMTQSPSSLSASVGDRVTITCRASQSINKWLAWYQQKPGKAPKLLIHDASTLESGVPSRFSGSGSGTEFTLTISSLHPDDSATYYCQQLKSRPLSFGEGTKLEIK
notes: 262 differs only at the VH N-terminus; Printed without a linker
Consider B13, for which the 50% inhibitory concentration (IC50) in [15] stood at 4.7 nM. Further, the “% Max Competition” value in test [11] is 77%. The molecule further gave an EC50 in [16] of 2.6 nM. In addition, the “% Max Binding” value in test [13] is 97%.

B14: Clone V102 (VHH)
VHH: QVQLVESGGGLVQPGRSLRLSCTASGFTFGDYAMSWVRQAPGKGLEWVGFIRSKAYGGTTEYAASVKGRFTISRDDSQSIAYLQMDSLKTEDTAVYYCAKVGPSWDYYFDYWGQGTLVTVSS
notes: as for B1
The molecule B14 returned an EC50 in test [5] of 129 nM.
